Experimental data reported in the RNAGym collection of RNA variant scans (doi:10.1093/nar/gkz1192).

B1: CPEB3 Ribozyme (parent)
chain: UAACAGGGGGCCACAGCAGAAGCGUUCACGUCGCAGCCCCUGUCAGAUUCUGGUGAAUCUGCGAAUUCUGCUGUAUAUCUC

Variants of: B1
Assay: self-cleavage, relative activity (ratio to wild type); higher = more cleavage; in vitro, sequencing
In short: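 For each CPEB3 ribozyme variant, relative activity is its cleaved/total read fraction divided by the unmutated ribozyme's. Barcoded error-prone PCR libraries were transcribed by T7 RNA polymerase (5 hours, 37°C) and held in DNase I for 15 min before an EDTA stop, with cleavage occurring throughout. Template-switching reverse transcription and Illumina sequencing were used to read the RNAs. A 5-read minimum applied, and results are the mean of three batches.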

Variant | self-cleavage
U58G U60A | 0.18
U58G U60C | 0.3
U58G U66C | 0.27
U58G U69C | 0.2
U58G U72A | 0.24
U58G U72C | 0.28
U58G U72G | 0.44
U58G U74A | 0.31
U58G U76A | 0.51
U58G U78A | 0.4
U58G U78C | 0.34
U58G U80C | 0.27
C59A | 0.37
C59A A64G | 0.2
C59A A65G | 0.13
C59A A65U | 0.05
C59A A75G | 0.16
C59A A75U | 0.13
C59A A77G | 0.31
C59A C68A | 0.19
C59A G70U | 0.13

Variant | self-cleavage
C59A G73U | 1.11
C59A U60A | 0.31
C59A U60C | 0.19
C59A U67A | 0.26
C59A U67C | 0.16
C59A U69A | 0.18
C59A U69C | 0.23
C59A U72A | 0.13
C59A U72C | 0.34
C59A U74C | 0.5
C59A U74G | 0.74
C59A U76A | 0.43
C59A U76G | 0.33
C59A U78A | 0.22
C59A U78C | 0.38
C59A U80C | 0.38
C59A U80G | 0.33
C59G | 0.32
C59G A75U | 0.28
C59G C71A | 0.24
C59G U60C | 0.16

Variant | self-cleavage
C59G U66C | 0.19
C59G U69C | 0.2
C59G U74A | 0.37
C59G U76A | 0.47
C59G U78C | 0.27
C59U | 0.95
C59U A64U | 0.25
C59U A65G | 0.4
C59U A75G | 0.81
C59U A77G | 0.94
C59U C62U | 0.16
C59U G63A | 0.86
C59U G73A | 1.45
C59U U60A | 0.28
C59U U60C | 0.34
C59U U67A | 0.28
C59U U67C | 0.21
C59U U69A | 0.41
C59U U69C | 0.48
C59U U72A | 0.4
C59U U72C | 1.14

Variant | self-cleavage
C59U U74A | 1.6
C59U U74C | 1.1
C59U U76C | 0.97
C59U U78A | 1.17
C59U U78C | 0.94
U60A | 0.57
U60A A64C | 0.13
U60A A64G | 0.43
U60A A64U | 0.33
U60A A65G | 0.34
U60A A65U | 0.21
U60A A75G | 0.46
U60A A75U | 0.62
U60A A77G | 0.56
U60A A77U | 0.52
U60A C62U | 0.26
U60A C68G | 0.43
U60A C71A | 0.39
U60A C71G | 0.35
U60A C71U | 0.48
U60A C79A | 0.88
